Experimental data: patent US20200231538, “NOVEL COMPOUNDS AND THERAPEUTICS USES THEREOF” (Centauri Therapeutics Limited (GB/GB), published 2020)

Assays:
[1] = molecular target: T1, EGFR (Homo sapiens, UniProt P00533 P00533:25-1210); test: flow; 10 nM (9.8 at 1 uM); anti-alpha-Gal IgG recruitment to A431 cells; PBS, 5 mM MgCl2, RT; settings: tags: A431 cells (ATCC CRL-1555), endogenous overexpression
Protocol: (§1) A431 cells (ATCC CRL-1555) were harvested and resuspended at 5×10⁶ cells/mL in phosphate buffered saline (PBS) (Sigma D8662)+0.1% BSA (Bovine Serum Albumin—Sigma A2153)+0.1 mg/mL Yeast t-RNA (Invitrogen 15401-011)+5 mM MgCl₂ (Sigma M1028) and incubated on ice for 30 minutes to block. 5×10⁵ cells were then incubated with compound at various concentrations as described below or buffer alone at room temperature, shaking at 450 rpm for 1 hour. The cells were washed with 3×200 μL PBS+0.1% BSA, prior to adding 50 μL of Anti-alpha galactosyl IgG antibody (custom purification from human IVIG, Rockland Immunochemicals, Inc.) at 35 μg/mL in PBS+0.1% BSA and incubating at 4° C. for 1 hour. The cells were further washed with 3×200 μL PBS+0.1% BSA before being treated with 100 μL 1:40 dilution of Anti-Human IgG-PE (phycoerythrin) (Biolegend 409303) at 4° C. for 1 hour. After a final wash of 3×200 μL PBS+0.1% BSA the cells were resuspended in 200 μL PBS+0.1% BSA and evaluated on a flow cytometer (FC500 Beckman Coulter). Data from all samples were analysed in the Kaluza software package (Beckman Coulter).
(§2) The fold shift over background was calculated by dividing the Mean Fluorescence Intensity (MFI) obtained in the presence of 10 nM or 1 μM alphamer by the Mean Fluorescence Intensity (MFI) obtained in the absence of alphamer. […]

[2] = molecular target: T1, EGFR; test: flow; 10 nM (16.3 at 1 uM); anti-alpha-Gal IgG recruitment to A431 cells; PBS, 5 mM MgCl2, RT; settings: tags: A431 cells (ATCC CRL-1555), endogenous overexpression
Protocol: as §1, §2

[3] = molecular target: T1, EGFR; test: flow; 10 nM (18.4 at 1 uM); anti-alpha-Gal IgG recruitment to A431 cells; PBS, 5 mM MgCl2, RT; settings: tags: A431 cells (ATCC CRL-1555), endogenous overexpression
Protocol: as §1, §2

[4] = molecular target: T1, EGFR; test: flow; 10 nM (7.5 at 1 uM); anti-alpha-Gal IgG recruitment to A431 cells; PBS, 5 mM MgCl2, RT; settings: tags: A431 cells (ATCC CRL-1555), endogenous overexpression
Protocol: as §1, §2

[5] = molecular target: T2, PSMA (Homo sapiens, UniProt Q04609 Q04609:1-750); test: flow; 10 nM (11.1 at 1 uM); anti-alpha-Gal IgG recruitment to LNCaP cells; PBS, 5 mM MgCl2, RT; settings: tags: LNCaP cells (ATCC CRL-1740), endogenous overexpression
T2 sequence (Q04609 whole entry, one chain of several): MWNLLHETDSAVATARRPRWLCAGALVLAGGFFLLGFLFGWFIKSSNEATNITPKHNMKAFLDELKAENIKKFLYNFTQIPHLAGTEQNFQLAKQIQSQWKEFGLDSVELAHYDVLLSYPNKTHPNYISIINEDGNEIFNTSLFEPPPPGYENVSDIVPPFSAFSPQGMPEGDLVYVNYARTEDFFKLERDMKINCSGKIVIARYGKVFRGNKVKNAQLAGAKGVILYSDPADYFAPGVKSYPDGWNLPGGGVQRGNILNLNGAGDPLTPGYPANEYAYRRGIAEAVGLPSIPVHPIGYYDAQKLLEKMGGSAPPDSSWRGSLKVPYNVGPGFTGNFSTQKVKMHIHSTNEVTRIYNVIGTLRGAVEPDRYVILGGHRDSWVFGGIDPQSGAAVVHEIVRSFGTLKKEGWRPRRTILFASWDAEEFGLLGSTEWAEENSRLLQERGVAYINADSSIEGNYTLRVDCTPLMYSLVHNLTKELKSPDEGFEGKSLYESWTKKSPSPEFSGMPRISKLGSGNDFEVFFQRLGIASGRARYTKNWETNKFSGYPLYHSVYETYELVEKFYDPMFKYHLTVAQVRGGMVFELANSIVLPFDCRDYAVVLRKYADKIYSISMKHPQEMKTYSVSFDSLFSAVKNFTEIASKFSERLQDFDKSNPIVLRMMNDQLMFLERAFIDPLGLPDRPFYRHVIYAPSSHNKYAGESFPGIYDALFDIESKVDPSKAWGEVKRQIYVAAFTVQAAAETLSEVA
Protocol: as §1, with “LNCaP” for “A431”, “CRL-1740)” for “CRL-1555)”, “The cells were washed with 3×200 μL PBS+0.1% BSA, prior to adding 50 μL of Anti-alpha galactosyl IgG antibody (custom purification from human IVIG, Rockland Immunochemicals, Inc.) at 35 μg/mL in PBS+0.1% BSA and incubating at 4° C. for 1 hour.” left out
as §2, with “alphamer. The fold shift over background is reported as a geometric mean with standard error in brackets. The number of independent experiments is also reported.” for “alphamer.”

[6] = molecular target: T2, PSMA; test: flow; 10 nM (8.6 at 1 uM); anti-alpha-Gal IgG recruitment to LNCaP cells; PBS, 5 mM MgCl2, RT; settings: tags: LNCaP cells (ATCC CRL-1740), endogenous overexpression
Protocol: as §1, with “LNCaP” for “A431”, “CRL-1740)” for “CRL-1555)”, “The cells were washed with 3×200 μL PBS+0.1% BSA, prior to adding 50 μL of Anti-alpha galactosyl IgG antibody (custom purification from human IVIG, Rockland Immunochemicals, Inc.) at 35 μg/mL in PBS+0.1% BSA and incubating at 4° C. for 1 hour.” left out
as §2, with “alphamer. The fold shift over background is reported as a geometric mean with standard error in brackets. The number of independent experiments is also reported.” for “alphamer.”

[7] = molecular target: T2, PSMA; test: flow; 10 nM (8.5 at 1 uM); anti-alpha-Gal IgG recruitment to LNCaP cells; PBS, 5 mM MgCl2, RT; settings: tags: LNCaP cells (ATCC CRL-1740), endogenous overexpression
Protocol: as §1, with “LNCaP” for “A431”, “CRL-1740)” for “CRL-1555)”, “The cells were washed with 3×200 μL PBS+0.1% BSA, prior to adding 50 μL of Anti-alpha galactosyl IgG antibody (custom purification from human IVIG, Rockland Immunochemicals, Inc.) at 35 μg/mL in PBS+0.1% BSA and incubating at 4° C. for 1 hour.” left out
as §2, with “alphamer. The fold shift over background is reported as a geometric mean with standard error in brackets. The number of independent experiments is also reported.” for “alphamer.”

B1: Example 1 (EGFR aptamer 1-alpha-Gal double cluster 1) (ssRNA)
RNA: GGGAUUUAAUCGCCGUAGAAAAGCAUGUCAAAGCCGGAACCC
modifications: 2'-F pyrimidines, 2'-OMe at most purines (mG, most mA), remaining A 2'-OH; 5' H2N-(CH2)6 linked to alpha-Gal cluster; 3' idT
[1]
  binding signal: 7.7 fold MFI over background

B2: Example 3 (EGFR aptamer 1-alpha-Gal double cluster 3) (ssRNA)
RNA: GGGAUUUAAUCGCCGUAGAAAAGCAUGUCAAAGCCGGAACCC
modifications: 2'-F pyrimidines, 2'-OMe at most purines (mG, most mA), remaining A 2'-OH; 5' H2N-(CH2)6 linked to alpha-Gal cluster; 3' idT
[2]
  binding signal: 9.7 fold MFI over background

B3: Example 2 (EGFR aptamer 1-alpha-Gal double cluster 2) (ssRNA)
RNA: GGGAUUUAAUCGCCGUAGAAAAGCAUGUCAAAGCCGGAACCC
modifications: 2'-F pyrimidines, 2'-OMe at most purines (mG, most mA), remaining A 2'-OH; 5' H2N-(CH2)6 linked to alpha-Gal cluster; 3' idT
[3]
  binding signal: 10.7 fold MFI over background

B4: Example 4 (EGFR aptamer 1-alpha-Gal double cluster 4) (ssRNA)
RNA: GGGAUUUAAUCGCCGUAGAAAAGCAUGUCAAAGCCGGAACCC
modifications: 2'-F pyrimidines, 2'-OMe at most purines (mG, most mA), remaining A 2'-OH; 5' H2N-(CH2)6 linked to alpha-Gal cluster; 3' idT
[4]
  binding signal: 3.4 fold MFI over background

B5: Example 5 (PSMA aptamer A9g-alpha-Gal double cluster 1) (ssRNA)
RNA: GGGACCGAAAAAGACCUGACUUCUAUACUAAGUCUACGUUCCC
modifications: 2'-F pyrimidines, 2'-OH purines; 5' H2N-(CH2)6 linked to alpha-Gal cluster; 3' idT
[5]
  binding signal: 7.8 fold MFI over background

B6: Example 7 (PSMA aptamer A9g-alpha-Gal double cluster 2) (ssRNA)
RNA: GGGACCGAAAAAGACCUGACUUCUAUACUAAGUCUACGUUCCC
modifications: 2'-F pyrimidines, 2'-OH purines; 5' H2N-(CH2)6 linked to alpha-Gal cluster; 3' idT
[6]
  binding signal: 3.82 fold MFI over background

B7: Example 6 (PSMA aptamer A9g-alpha-Gal double cluster 5) (ssRNA)
RNA: GGGACCGAAAAAGACCUGACUUCUAUACUAAGUCUACGUUCCC
modifications: 2'-F pyrimidines, 2'-OH purines; 5' H2N-(CH2)6 linked to alpha-Gal cluster; 3' idT
[7]
  binding signal: 5.33 fold MFI over background
